Experimental data: patent US20150218250A1
Values belong to the substance of their own block, whether it stands above or below them.

Tests used:
- [1] = assay: SPR; monomeric, top panel
[2] = target: antibody captured by the human Fab capture kit; assay: SPR (BIAcore), antibody captured via human Fab capture kit, 50 nM receptor injected as analyte
- [3] = assay: SPR; monomeric, middle panel
[4] = target: antibody captured by the human Fab capture kit; assay: SPR (BIAcore), antibody captured via human Fab capture kit, 50 nM receptor fusion injected as analyte

- Kd (- [1]): 0.921 nM
Substance: monomeric IL18R-Fc fusion polypeptide (top)

- response units [2]: 40 RU
Substance: FcgammaRIIIaV158 (HisAvi-tag comprising functional variant) (receptor)

- Kd (- [3]): 0.801 nM
Substance: monomeric IL18R-Fc fusion polypeptide (middle)

- response units [4]: > 100 RU
Substance: FcgammaRIIIaV158-Avi-IgA Protease-Fc LALA P329G fusion polypeptide (Fc fusion)
